Laboratory results published in US20180312579A1 (Genentech, published 2018).
Each block holds one binder with its values, some of them ahead of it.

Assays:
recombinant human RSPO2 = recombinant human RSPO2 (human, UniProt Q6UXX9 22-243); assay: cell-based or functional assay
recombinant human RSPO3 [1] = biological target: T1, recombinant human RSPO3 (human, UniProt Q9BXY4 22-272); assay: cell-based or functional assay
T1 sequence: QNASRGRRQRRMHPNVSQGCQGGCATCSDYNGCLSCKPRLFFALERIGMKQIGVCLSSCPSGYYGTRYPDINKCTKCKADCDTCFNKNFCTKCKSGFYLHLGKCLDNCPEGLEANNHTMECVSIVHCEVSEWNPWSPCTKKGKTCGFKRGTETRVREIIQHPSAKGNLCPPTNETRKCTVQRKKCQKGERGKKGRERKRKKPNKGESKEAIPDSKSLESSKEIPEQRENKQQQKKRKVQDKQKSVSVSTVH

cynomolgus RSPO3 [2] = biological target: T2, cynomolgus RSPO3 (cynomolgus, UniProt A0A2K5UTQ7 22-273); assay: cell-based or functional assay
T2 sequence: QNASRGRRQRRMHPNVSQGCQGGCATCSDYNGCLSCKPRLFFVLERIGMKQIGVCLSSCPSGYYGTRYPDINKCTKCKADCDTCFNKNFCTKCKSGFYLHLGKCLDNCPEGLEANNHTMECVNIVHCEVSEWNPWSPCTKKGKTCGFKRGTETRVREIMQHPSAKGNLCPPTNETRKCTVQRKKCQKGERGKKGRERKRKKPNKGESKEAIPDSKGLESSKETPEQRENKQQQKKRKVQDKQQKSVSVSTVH

mouse RSPO3 [3] = biological target: T3, mouse RSPO3 (mouse, UniProt Q2TJ95 22-277, limits assumed); assay: cell-based or functional assay
T3 sequence (looked up): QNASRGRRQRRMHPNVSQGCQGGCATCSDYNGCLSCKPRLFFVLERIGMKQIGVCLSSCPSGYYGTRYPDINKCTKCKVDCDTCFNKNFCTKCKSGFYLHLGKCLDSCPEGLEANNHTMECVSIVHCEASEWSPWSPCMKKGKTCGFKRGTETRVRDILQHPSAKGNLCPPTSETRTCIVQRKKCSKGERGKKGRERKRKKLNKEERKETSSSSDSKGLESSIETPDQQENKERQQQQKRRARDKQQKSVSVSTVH

cynomolgus RSPO2 = cynomolgus RSPO2 (cynomolgus, UniProt G7PCH9 22-243); assay: cell-based or functional assay
mouse RSPO2 = mouse RSPO2 (mouse, UniProt Q8BFU0 22-205, limits assumed); assay: cell-based or functional assay
[4] = biological target: T4, human RSPO3 with C-terminal HA tag, stably expressed in 293 cells (human, UniProt Q9BXY4 22-272); assay: IHC, FFPE 293 cell pellet, RSPO3 Hi
T4 construct: Whole open reading frame expressed in HEK-293 cells (high, medium, low); FFPE pellets; also called hRSPO3; RSPO3 Hi
T4 sequence: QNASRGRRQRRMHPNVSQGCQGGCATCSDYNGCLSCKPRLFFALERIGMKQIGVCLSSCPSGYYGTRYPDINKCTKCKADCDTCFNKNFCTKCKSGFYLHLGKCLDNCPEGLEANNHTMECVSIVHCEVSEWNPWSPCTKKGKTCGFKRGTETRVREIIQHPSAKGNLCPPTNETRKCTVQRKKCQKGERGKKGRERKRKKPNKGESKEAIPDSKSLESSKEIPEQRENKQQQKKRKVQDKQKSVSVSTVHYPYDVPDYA

[5] = biological target: T4, human RSPO3 with C-terminal HA tag, …; assay: IHC, FFPE 293 cell pellet, RSPO3 Low
[6] = biological target: T4, human RSPO3 with C-terminal HA tag, …; assay: IHC, FFPE 293 cell pellet, RSPO3 Med
[7] = biological target: T5, human RSPO1 with C-terminal HA tag, stably expressed in 293 cells (human, UniProt Q2MKA7 21-263); assay: IHC, FFPE 293 cell pellet, RSPO1 Hi; - = not significant staining
T5 construct: also called hRSPO1; RSPO1 Hi

[8] = biological target: T6, human RSPO4 with C-terminal HA tag, stably expressed in 293 cells (human, UniProt Q2I0M5 20-234); assay: IHC, FFPE 293 cell pellet, RSPO4 Hi; - = not significant staining
T6 construct: also called hRSPO4; RSPO4 Hi

[9] = biological target: T7, FLAG-tagged human RSPO3 (Genentech) (human, UniProt Q9BXY4 22-272); assay: competitive binding ELISA: titrated against biotinylated RNF43-Flag (RNF43-ECD) binding to plate-coated hRSPO3; signal = bound RNF43, normalized OD
T7 construct: also called hRSPO3; RSPO3 coated plates; not shown: FLAG tag
T7 sequence: T1 sequence

[10] = biological target: T7, FLAG-tagged human RSPO3 (Genentech); assay: competitive binding ELISA: antibody titrated against LGR4-Fc (LGR4-ECD) binding to plate-coated hRSPO3; signal = bound LGR4-Fc, OD(450/630)/OD no antibody
Procedure: To measure the activity of anti-RSPO antibodies in blocking the binding of LGR4 and -5 ECDs to RSPOs, MaxiSorp 384-well microwell plates (Thermo Scientific Nunc, Roskilde, Denmark) were coated with 25 ul/well of 0.5 μg/ml hRSPO2 or hRSPO3 (Genentech) in 50 mM carbonate buffer, pH 9.6, overnight at 4° C. Plates were blocked with at 80 ul/well of 0.5% bovine serum albumin, 15 parts per million Proclin 300 in phosphate buffered saline (PBS), pH 7.4, for 1 hour. Serially diluted anti-RSPO antibodies ([…] in […] serial dilution plus buffer blank) containing 0.1 μg/ml LGR4-Fc or 0.015 μg/ml LGR5-Fc in assay buffer (0.5% BSA, 0.05% polysorbate 20, 15 parts per million Proclin 300 in PBS) were added to the plates at 25 ul/well. After a 2-hour incubation, LGR4-Fc and LGR5-Fc bound to the plates were detected using peroxidase labeled goat F(ab′)2 anti-human Fc (Jackson ImmunoResearch, West Grove, Pa.). After a 1 hour incubation, the substrate 3,3′,5,5′-tetramethyl benzidine (Moss Inc., Pasadena, Md.) was added to the plates and the reaction was stopped by adding 1 M phosphoric acid. Plates were washed with PBS, pH 7.4, containing 0.05% tween 20, between steps and all the incubation steps following the coating step were performed at room temperature on an orbital shaker. Absorbance was read at 450 nm on a multiskan Ascent reader (Thermo Scientific, Hudson, N.H.).

recombinant human RSPO3 [11] = biological target: T1, recombinant human RSPO3; assay: SPR, BIAcore T200, huRSPO3 immobilized, antibody injected
Procedure: (§1) The binding affinity of the antibodies in this section was determined by BIAcore™ T200 Format. Briefly, BIAcore™ research grade CMS chips were activated with 1-ethyl-3-(3-dimethylaminopropyl) carbodiimide (EDC) and N-hydroxysuccinimide (NETS) reagents according to the supplier's instructions. huRSPO3 was immobilized to achieve approximately 50 response units (RU) in each flow cell. Unreacted coupling groups were blocked with 1M ethanolamine. For kinetics measurements, Four-fold serial dilutions of variant antibody was injected in HBS-P buffer (0.01M HEPES pH7.4, 0.15M NaCl, 0.005% surfactant P20) at 25° C. with a flow rate of 30 μl/min. Association rates (kon) and dissociation rates (koff) were calculated using a 1:1 Langmuir binding model (BIAcore™ T200 Evaluation Software version 2.0). The equilibrium dissociation constant (Kd) was calculated as the ratio koff/kon.

cynomolgus RSPO3 [12] = biological target: T2, cynomolgus RSPO3; assay: SPR, BIAcore T200, cyno RSPO3 immobilized, antibody injected
Procedure: as §1
(§2) The hu5D6v4.1 and the chimeric 5D6 were tested for their ability to bind cyno and mouse RSPO3 as described above except that cyno or murine RSPO3 replaced huRSPO3 in the binding assay. Binding properties for the humanized antibodies are shown below in Table 5.

mouse RSPO3 [13] = biological target: T3, mouse RSPO3; assay: SPR, BIAcore T200, murine RSPO3 immobilized, antibody injected
Procedure: as §1, §2

Sequence of mouse RSPO2 (Q8BFU0 22-205 limits assumed): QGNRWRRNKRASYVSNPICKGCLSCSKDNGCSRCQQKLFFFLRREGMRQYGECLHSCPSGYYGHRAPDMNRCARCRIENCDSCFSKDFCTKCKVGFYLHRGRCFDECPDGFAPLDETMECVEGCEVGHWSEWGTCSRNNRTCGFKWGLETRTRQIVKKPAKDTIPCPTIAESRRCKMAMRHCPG
Sequence of cynomolgus RSPO2 (G7PCH9 entry or part of it): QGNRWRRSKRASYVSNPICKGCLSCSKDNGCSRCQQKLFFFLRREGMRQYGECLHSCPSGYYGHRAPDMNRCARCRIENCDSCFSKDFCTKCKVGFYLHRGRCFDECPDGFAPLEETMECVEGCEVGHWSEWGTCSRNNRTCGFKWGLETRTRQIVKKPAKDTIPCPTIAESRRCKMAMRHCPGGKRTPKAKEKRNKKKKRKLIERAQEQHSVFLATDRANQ
T5 sequence (Q2MKA7 other isoform, or with tags, fused parts or gaps limits assumed): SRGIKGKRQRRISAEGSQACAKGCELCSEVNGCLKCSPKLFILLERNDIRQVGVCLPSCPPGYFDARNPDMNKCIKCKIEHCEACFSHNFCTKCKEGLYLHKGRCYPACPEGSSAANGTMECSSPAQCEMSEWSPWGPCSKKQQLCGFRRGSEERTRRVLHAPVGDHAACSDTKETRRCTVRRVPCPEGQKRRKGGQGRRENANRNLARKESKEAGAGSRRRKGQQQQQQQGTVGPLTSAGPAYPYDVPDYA
Sequence of recombinant human RSPO2 (Q6UXX9 22-243): as the sequence (G7PCH9 entry or part of it) above, with A160V, P165L, A178T counted along it
T6 sequence (Q2I0M5 other isoform, or with tags, fused parts or gaps limits assumed): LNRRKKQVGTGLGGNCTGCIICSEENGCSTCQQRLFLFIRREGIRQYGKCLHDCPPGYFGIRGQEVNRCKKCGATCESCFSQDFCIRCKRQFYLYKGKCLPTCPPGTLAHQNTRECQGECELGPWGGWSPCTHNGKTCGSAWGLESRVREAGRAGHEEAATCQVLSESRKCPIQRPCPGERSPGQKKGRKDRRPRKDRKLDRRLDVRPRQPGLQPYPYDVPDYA

IC50, WNT luciferase reporter, bivalent antibody (recombinant human RSPO2): > 500000 pM
IC50, WNT luciferase reporter, bivalent antibody (recombinant human RSPO3 [1]): 5600 pM
IC50, WNT luciferase reporter, bivalent antibody (cynomolgus RSPO3 [2]): 6500 pM
IC50, WNT luciferase reporter, bivalent antibody (mouse RSPO3 [3]): 140000 pM
IC50, WNT luciferase reporter, bivalent antibody (cynomolgus RSPO2): > 500000 pM
IC50, WNT luciferase reporter, bivalent antibody (mouse RSPO2): > 500000 pM
percentage of cells staining [4]: > 95%
percentage of cells staining [5]: 50%
percentage of cells staining [6]: 70%
binding result [7]: no binding
binding result [8]: no binding
IC50 (read off the curve) [9]: ~0.08 µg/mL
IC50 (read off the curve) [10]: ~0.1 µg/mL
B1: 6E9 (antibody, V domains shown)
VH: QVQLKESGPGLVQPSQSLSITCTVSGFSLTSYGVHWVRQSPGKGLEWLGVIWSGGSTDYNAAFISRLSISKDNSKSQVFFKMNSLQANDTAIYYCARNDGYYYFDYWGQGTTLTVSS
VL: DIKMTQSTSSLSASLGDRVTISCRASQDISNYLNWYQQKPDGTVKLLIYYTSRLHSGVPSRFSGSGSGTDYSLTISNLEQEDIATYFCQQGDTLPPAFGGGTKLEIK
notes: also called monoclonal antibody 6E9

Kd (recombinant human RSPO3 [11]): 63.5 pM
koff (recombinant human RSPO3 [11]): 0.000229 s⁻¹
kon (recombinant human RSPO3 [11]): 3.6e+06 M⁻¹ s⁻¹
Kd (cynomolgus RSPO3 [12]): 81.1 pM
koff (cynomolgus RSPO3 [12]): 0.000434 s⁻¹
kon (cynomolgus RSPO3 [12]): 5.35e+06 M⁻¹ s⁻¹
Kd (mouse RSPO3 [13]): 99.3 pM
koff (mouse RSPO3 [13]): 0.000423 s⁻¹
kon (mouse RSPO3 [13]): 4.26e+06 M⁻¹ s⁻¹
B2: hu5D6v4.1 (Fab, V domains shown)
VH: EVQLVESGPGLVKPSETLSLTCTVSGDSITSGYWNWIRQPPGKGLEWIGYISYSGKTYQNPSLKSRVTISRDTSKNQFSLKLSSVTAADTAVYYCATYYGYGGPWFAYWGQGTLVTVSS
VL: DIQMTQSPSSLSASVGDRVTITCKASQDIDSYLSWFQQKPGKAPKTLIYLTNRLVDGVPSRFSGSGSGTDYTLTISSLQPEDFATYYCLHYDEFPLTFGQGTKVEIK
notes: Humanized 5D6 variant; also called v1+T69 (LC)+(W47+I48+V67+F78 (HC))

IC50, WNT luciferase reporter, bivalent antibody (recombinant human RSPO2): 6400 pM
IC50, WNT luciferase reporter, bivalent antibody (recombinant human RSPO3 [1]): 800 pM
IC50, WNT luciferase reporter, bivalent antibody (cynomolgus RSPO3 [2]): 290 pM
IC50, WNT luciferase reporter, bivalent antibody (mouse RSPO3 [3]): 690 pM
IC50, WNT luciferase reporter, bivalent antibody (cynomolgus RSPO2): 2800 pM
IC50, WNT luciferase reporter, bivalent antibody (mouse RSPO2): > 500000 pM
percentage of cells staining [4]: 90%
percentage of cells staining [5]: 30%
percentage of cells staining [6]: 60%
binding result [7]: no binding
binding result [8]: no binding
IC50 (read off the curve) [9]: ~0.08 µg/mL
IC50 (read off the curve) [10]: ~0.1 µg/mL
B3: 4H1 (antibody, V domains shown)
VH: EVKLVESGGGFVKPGGSLKLSCAASGFTFSNFAMSWVRQSPEKRLEWVAEINNGGNYAYYQDTVTGRFTISRDNAKNTLYLEMSSLRSEDTAMYFCAREDYVNYEAYFAYWGQGTTLTVSS
VL: SIVMTQTPLSLPVSLGDQASISCRSSQSIVHSNGNTYLEWYLQKPGQSPKLLIYRISNRFSGVPDRFSGSGSGTDFTLKISRVEAEDLGVYYCFQGSHVPYTFGGGTKLEIK
notes: Hybridoma-derived monoclonal (mice or hamsters immunized with hRSPO2 and/or hRSPO3), cloned, expressed and purified; also called monoclonal antibody 4H1

IC50, WNT luciferase reporter, bivalent antibody (recombinant human RSPO2): > 500000 pM
IC50, WNT luciferase reporter, bivalent antibody (recombinant human RSPO3 [1]): 0.3 pM
IC50, WNT luciferase reporter, bivalent antibody (cynomolgus RSPO3 [2]): 0.3 pM
IC50, WNT luciferase reporter, bivalent antibody (mouse RSPO3 [3]): 1 pM
IC50, WNT luciferase reporter, bivalent antibody (cynomolgus RSPO2): > 500000 pM
IC50, WNT luciferase reporter, bivalent antibody (mouse RSPO2): > 500000 pM
percentage of cells staining [4]: > 95%
percentage of cells staining [5]: 30%
percentage of cells staining [6]: 70%
binding result [7]: no binding
binding result [8]: no binding
IC50 (read off the curve) [9]: ~0.1 µg/mL
IC50 (read off the curve) [10]: ~0.1 µg/mL
B4: 5D6 (antibody, V domains shown)
VH: EVQLQESGPSLVKPSQTLSLTCSVTGDSITSGYWNWIRKFPGNKFEYMGYISYSGKTYQNPSLKSRISITRDTSKNQYHLQLNSVTTEDTATYYCATYYGYGGPWFAYWGQGTLVTVSA
VL: DIVLTQSPSSMYASLGERVTITCKASQDIDSYLSWFQQKPGKSPKTLIYLTNRLVDGVPSRFSGSGSGQDYSLTISSLEYEDMGIYYCLHYDEFPLTFGAGTKLEIK
notes: Murine; also called monoclonal antibody 5D6; mu5D6

Kd (recombinant human RSPO3 [11]): 33.1 pM
koff (recombinant human RSPO3 [11]): 0.000116 s⁻¹
kon (recombinant human RSPO3 [11]): 3.51e+06 M⁻¹ s⁻¹
Kd (cynomolgus RSPO3 [12]): 45.3 pM
koff (cynomolgus RSPO3 [12]): 0.000224 s⁻¹
kon (cynomolgus RSPO3 [12]): 4.96e+06 M⁻¹ s⁻¹
Kd (mouse RSPO3 [13]): 57.8 pM
koff (mouse RSPO3 [13]): 0.000237 s⁻¹
kon (mouse RSPO3 [13]): 4.1e+06 M⁻¹ s⁻¹
B5: chimeric 5D6 (antibody, V domains shown)
VH: B4 VH
VL: B4 VL
notes: also called 5D6 chimera
